The source of these data is the Human Domainome abundance scans (Beltran et al. 2025).

± gives the uncertainty stated by the source.

B1: Dynamin-binding protein, residues 242 to 304; numbered along this chain, Q6XZF7 (parent)
chain: EEPGTYGVALYRFQALEPNELDFEVGDKIRILATLEDGWLEGSLKGRTGIFPYRFVKLCPDTR

Variants of B1 are the subject of the data set. As to the kind of experiment: abundance fitness (aPCA) (normalised: wild type 0, dead -1); higher = more abundant; growth selection in yeast, the domain comes from the species named. The following applies: Homo sapiens.
For EEPGTYGVALYRFQALEPNELDFEVGDKIRILATLEDGWLEGSLKGRCGIFPYRFVKLCPDTR [T48C], the abundance fitness is -0.286 ± 0.062. Take EEPGTYGVALYRFQALEPNELDFEVGDKIRILATLEDGWLEGSLKGRDGIFPYRFVKLCPDTR [T48D]: the abundance fitness is -0.818 ± 0.11. In the case of EEPGTYGVALYRFQALEPNELDFEVGDKIRILATLEDGWLEGSLKGRGGIFPYRFVKLCPDTR [T48G] it was -0.685 ± 0.095; in that of EEPGTYGVALYRFQALEPNELDFEVGDKIRILATLEDGWLEGSLKGRQGIFPYRFVKLCPDTR [T48Q], -0.203 ± 0.12. The value for EEPGTYGVALYRFQALEPNELDFEVGDKIRILATLEDGWLEGSLKGRAGIFPYRFVKLCPDTR [T48A] was -0.699 ± 0.11; that for EEPGTYGVALYRFQALEPNELDFEVGDKIRILATLEDGWLEGSLKGMTGIFPYRFVKLCPDTR [R47M] was -0.689 ± 0.18. The value for EEPGTYGVALYRFQALEPNELDFEVGDKIRILATLEDGWLEGSLKGTTGIFPYRFVKLCPDTR [R47T] was -0.678 ± 0.16; that for EEPGTYGVALYRFQALEPNELDFEVGDKIRILATLEDGWLEGSLKGPTGIFPYRFVKLCPDTR [R47P] was -1.09 ± 0.4. Consider EEPGTYGVALYRFQALEPNELDFEVGDKIRILATLEDGWLEGSLKGVTGIFPYRFVKLCPDTR [R47V], for which the abundance fitness is -0.477 ± 0.065. The value for EEPGTYGVALYRFQALEPNELDFEVGDKIRILATLEDGWLEGSLKGQTGIFPYRFVKLCPDTR [R47Q] was -0.588 ± 0.25; that for EEPGTYGVALYRFQALEPNELDFEVGDKIRILATLEDGWLEGSLKGWTGIFPYRFVKLCPDTR [R47W] was -0.676 ± 0.24. As for EEPGTYGVALYRFQALEPNELDFEVGDKIRILATLEDGWLEGSLKGYTGIFPYRFVKLCPDTR [R47Y], the abundance fitness was -0.282 ± 0.073.

EEPGTYGVALYRFQALEPNELDFEVGDKIRILATLEDGWLEGSLKGRTGIYPYRFVKLCPDTR [F51Y]: the abundance fitness was -0.497 ± 0.066. In the case of EEPGTYGVALYRFQALEPNELDFEVGDKIRILATLEDGWLEGSLKGRTGILPYRFVKLCPDTR [F51L] it was -0.492 ± 0.079; in that of EEPGTYGVALYRFQALEPNELDFEVGDKIRILATLEDGWLEGSLKGRTGIAPYRFVKLCPDTR [F51A], -0.919 ± 0.14; in that of EEPGTYGVALYRFQALEPNELDFEVGDKIRILATLEDGWLEGSLKGRTGIPPYRFVKLCPDTR [F51P], -0.524 ± 0.14. In the case of EEPGTYGVALYRFQALEPNELDFEVGDKIRILATLEDGWLEGSLKGRTGICPYRFVKLCPDTR [F51C] it was -0.748 ± 0.092; in that of EEPGTYGVALYRFQALEPNELDFEVGDKIRILATLEDGWLEGSLKGRTGIKPYRFVKLCPDTR [F51K], -0.623 ± 0.27. In the case of EEPGTYGVALYRFQALEPNELDFEVGDKIRILATLEDGWLEGSLKGRTGIRPYRFVKLCPDTR [F51R] it was -0.655 ± 0.097; in that of EEPGTYGVALYRFQALEPNELDFEVGDKIRILATLEDGWLEGSLKGRTGIHPYRFVKLCPDTR [F51H], -0.792 ± 0.12. With EEPGTYGVALYRFQALEPNELDFEVGDKIRILATLEDGWLEGSLKGRTGIEPYRFVKLCPDTR [F51E], the abundance fitness is -0.854 ± 0.26. In the case of EEPGTYGVALYRFQALEPNELDFEVGDKIRILATLEDGWLEGSLKGRTGIWPYRFVKLCPDTR [F51W] it was -0.59 ± 0.16. In the case of EEPGTYGVALYRFQALEPNELDFEVGDKIRILATLEDGWLEGSLKGRTGIGPYRFVKLCPDTR [F51G] it was -0.85 ± 0.095; in that of EEPGTYGVALYRFQALEPNELDFEVGDKIRILATLEDGWLEGSLKGRTGINPYRFVKLCPDTR [F51N], -0.791 ± 0.094; in that of EEPGTYGVALYRFQALEPNELDFEVGDKIRILATLEDGWLEGSLKGRTGISPYRFVKLCPDTR [F51S], -0.794 ± 0.081. Take EEPGTYGVALYRFQALEPNELDFEVGDKIRILATLEDGWLEGSLKGRTGIIPYRFVKLCPDTR [F51I]: the abundance fitness is -0.752 ± 0.1. The value for EEPGTYGVALYRFQALEPNELDFEVGDKIRILATLEDGWLEGSLKGRTGIVPYRFVKLCPDTR [F51V] was -0.224 ± 0.055. Consider EEPGTYGVALYRFQALEPNELDFEVGDKIRILATLEDGWLEGSLKGRTGIDPYRFVKLCPDTR [F51D], for which the abundance fitness is -0.862 ± 0.17. In the case of EEPGTYGVALYRFQALEPNELDFEVGDKIRILATLEDGWLEGSLKGRTGITPYRFVKLCPDTR [F51T] it was -0.681 ± 0.11. The value for EEPGTYGVALYRFQALEPNELDFEVGDKIRILATLEDGWLEGSLKGRTLIFPYRFVKLCPDTR [G49L] was -0.887 ± 0.16; that for EEPGTYGVALYRFQALEPNELDFEVGDKIRILATLEDGWLEGSLKGRTHIFPYRFVKLCPDTR [G49H] was -0.807 ± 0.17. The value for EEPGTYGVALYRFQALEPNELDFEVGDKIRILATLEDGWLEGSLKGRTIIFPYRFVKLCPDTR [G49I] was -0.59 ± 0.12; that for EEPGTYGVALYRFQALEPNELDFEVGDKIRILATLEDGWLEGSLKGRTYIFPYRFVKLCPDTR [G49Y] was -0.805 ± 0.13; that for EEPGTYGVALYRFQALEPNELDFEVGDKIRILATLEDGWLEGSLKGRTCIFPYRFVKLCPDTR [G49C] was -0.422 ± 0.071.

EEPGTYGVALYRFQALEPNELDFEVGDKIRILATLEDGWLEGSLKGRTVIFPYRFVKLCPDTR [G49V]: the abundance fitness was -0.782 ± 0.088. Turning to EEPGTYGVALYRFQALEPNELDFEVGDKIRILATLEDGWLEGSLKGRTNIFPYRFVKLCPDTR [G49N], the abundance fitness is -0.499 ± 0.094. As for EEPGTYGVALYRFQALEPNELDFEVGDKIRILATLEDGWLEGSLKGRTFIFPYRFVKLCPDTR [G49F], the abundance fitness was -0.735 ± 0.1. The value for EEPGTYGVALYRFQALEPNELDFEVGDKIRILATLEDGWLEGSLKGRTSIFPYRFVKLCPDTR [G49S] was -0.504 ± 0.088; that for EEPGTYGVALYRFQALEPNELDFEVGDKIRILATLEDGWLEGSLKGRTMIFPYRFVKLCPDTR [G49M] was -0.711 ± 0.4; that for EEPGTYGVALYRFQALEPNELDFEVGDKIRILATLEDGWLEGSLKGRTTIFPYRFVKLCPDTR [G49T] was -0.829 ± 0.18. The value for EEPGTYGVALYRFQALEPNELDFEVGDKIRILATLEDGWLEGSLKGRTWIFPYRFVKLCPDTR [G49W] was -0.601 ± 0.35; that for EEPGTYGVALYRFQALEPNELDFEVGDKIRILATLEDGWLEGSLKGRTPIFPYRFVKLCPDTR [G49P] was -1.08 ± 0.33; that for EEPGTYGVALYRFQALEPNELDFEVGDKIRILATLEDGWLEGSLKGRTDIFPYRFVKLCPDTR [G49D] was -0.574 ± 0.11.
